This is an account of results in the RNAGym collection of RNA variant scans (doi:10.1073/pnas.2313332121).

B1: TPR t1 (parent)
chain: GACCAAUCUGCCCUCAGAGCUCGAGAACAUCUUCGGAUGCAGAGGAGGCAGGCUUCGGUGGCGCGAUAGCGCCAACGUCCUCAACCUCCAAUGCAUCCCACCACAUGAUGAUGCCUGAAGAGCCUUGGUUUUUUG

This data set covers variants of B1. Kind of data set: polymerase ribozyme fitness, log enrichment relative to wild type (log ratio); higher = more active; in vitro selection for triplet polymerase activity. An outline of the steps: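 Mutant libraries were PCR-built and transcribed for each subunit of a heterodimeric triplet polymerase ribozyme and selected for one round in triplicate at −7 °C, frozen, before gel excision of extended constructs and streptavidin-bead capture. Input and output libraries were Illumina-sequenced, keeping genotypes with ≥10 input reads and ≥1 read per output. Fitness is a logarithmic ratio of genotype to wild-type enrichment, in base 2, using inverse-variance-weighted replicate averages.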
With G36A G45C C114A, the “polymerase ribozyme fitness (log ratio)” value is -3.75.

Consider C34U U112A, for which the “polymerase ribozyme fitness (log ratio)” value was -2.99.

For A37U A74C A83U G117U, the “polymerase ribozyme fitness (log ratio)” value was -3.26.

Regarding A37U A41C U55C U87G C88U, the “polymerase ribozyme fitness (log ratio)” value is -2.92.

On to C34U C53U G61U G120A U132A, for which the “polymerase ribozyme fitness (log ratio)” value is -3.26.

On to G36A U59A, for which the “polymerase ribozyme fitness (log ratio)” value was -0.196.

In the case of C34G C98G C115A U125A, the “polymerase ribozyme fitness (log ratio)” value was -7.53.

For A37G G60U U112C C123G, the “polymerase ribozyme fitness (log ratio)” value is -0.195.

In the case of G36U C97A, the “polymerase ribozyme fitness (log ratio)” value was -0.428.

Regarding A37U A91U U130A, the “polymerase ribozyme fitness (log ratio)” value was -2.83.

As for C34G G51U C53A G69U G120U, the “polymerase ribozyme fitness (log ratio)” value was -7.39.

For A37U C73A, the “polymerase ribozyme fitness (log ratio)” value was -0.559.

As for A37G A84C, the “polymerase ribozyme fitness (log ratio)” value is -0.444.

With C34U G117U, the “polymerase ribozyme fitness (log ratio)” value was -5.02.

A37U G93U: the “polymerase ribozyme fitness (log ratio)” value is -1.86.

In the case of G36A A37G C72U G122A, the “polymerase ribozyme fitness (log ratio)” value is -1.5.

Regarding C34U G45C C124G, the “polymerase ribozyme fitness (log ratio)” value is -3.01.

For G36A U54G, the “polymerase ribozyme fitness (log ratio)” value was -1.04.

Take A37U G61U: the “polymerase ribozyme fitness (log ratio)” value was -0.28.

Take A37U G61C: the “polymerase ribozyme fitness (log ratio)” value is -1.86.

For A37C A95G, the “polymerase ribozyme fitness (log ratio)” value is -0.966.

With G36U A111G U133G, the “polymerase ribozyme fitness (log ratio)” value was -2.38.

As to G36C A50C G52A, the “polymerase ribozyme fitness (log ratio)” value was -4.73.

With A37C G39C, the “polymerase ribozyme fitness (log ratio)” value was -4.38.

As for A37U G57A A66C, the “polymerase ribozyme fitness (log ratio)” value is -4.07.

As for A37C C40U U55C A91C, the “polymerase ribozyme fitness (log ratio)” value is -3.28.

In the case of C34U C53U U109G A119U A121C, the “polymerase ribozyme fitness (log ratio)” value is -6.04.

Regarding G35A G58C, the “polymerase ribozyme fitness (log ratio)” value is -3.4.

For the variant G36A G61A A103C A118U, the “polymerase ribozyme fitness (log ratio)” value is -5.74.

As for G35A A41C U54C C64A A84G C101U C123U, the “polymerase ribozyme fitness (log ratio)” value was -7.59.

As for C34U U106C, the “polymerase ribozyme fitness (log ratio)” value was -3.99.

On to C34U U106A, for which the “polymerase ribozyme fitness (log ratio)” value was -4.95.

Take G36U C56U C104A: the “polymerase ribozyme fitness (log ratio)” value is -2.85.

As to G35A G63C G71U C114A, the “polymerase ribozyme fitness (log ratio)” value was -6.69.

Take G35C C88U: the “polymerase ribozyme fitness (log ratio)” value is -4.03.

As for G36C G60A, the “polymerase ribozyme fitness (log ratio)” value is -0.627.

C34G U55C G58A C82A C85U C88A C123U U131G: the “polymerase ribozyme fitness (log ratio)” value was -6.74.

Regarding C34G G36U C72U U96C G127C U130G, the “polymerase ribozyme fitness (log ratio)” value was -6.19.

In the case of G36U U78G C115G, the “polymerase ribozyme fitness (log ratio)” value is -4.29.

With A37U C86A, the “polymerase ribozyme fitness (log ratio)” value is -0.797.

With G35U C82U C115A, the “polymerase ribozyme fitness (log ratio)” value is -6.43.

Turning to A37C G48U A108U G120C, the “polymerase ribozyme fitness (log ratio)” value was -5.53.

In the case of A37G G44C G48U C73A, the “polymerase ribozyme fitness (log ratio)” value was -2.25.

Regarding G35U G45A U81A C89A G120A, the “polymerase ribozyme fitness (log ratio)” value is -4.73.

In the case of G36C C72G, the “polymerase ribozyme fitness (log ratio)” value is -2.37.

In the case of A37C A75U C89U C102A, the “polymerase ribozyme fitness (log ratio)” value was -2.92.

Turning to C34G G63U, the “polymerase ribozyme fitness (log ratio)” value was -8.24.

As for C34G G63A, the “polymerase ribozyme fitness (log ratio)” value was -7.1.

G36C C114A G120A: the “polymerase ribozyme fitness (log ratio)” value is -2.49.

Regarding G35U C53U G69U G110U, the “polymerase ribozyme fitness (log ratio)” value is -4.63.

For G36A G71U U106A, the “polymerase ribozyme fitness (log ratio)” value was -1.11.

Regarding C34U C101U U112A, the “polymerase ribozyme fitness (log ratio)” value was -6.92.

For A37U C72U A75U U78G C124A, the “polymerase ribozyme fitness (log ratio)” value was found to be 1.33.

On to C34U U59A, for which the “polymerase ribozyme fitness (log ratio)” value was -5.75.

Take G36U G60A C94U: the “polymerase ribozyme fitness (log ratio)” value was -1.8.

With A37U G44C A100G C104U C115A, the “polymerase ribozyme fitness (log ratio)” value is -5.44.

For the variant G35A G45C G71C G77C C104U C114G, the “polymerase ribozyme fitness (log ratio)” value is -5.08.

Turning to G36U C101A U130C, the “polymerase ribozyme fitness (log ratio)” value was -1.6.

As for A37U G77U, the “polymerase ribozyme fitness (log ratio)” value is -0.679.

For the variant A37G C64A, the “polymerase ribozyme fitness (log ratio)” value was -6.74.

For A37G C70U, the “polymerase ribozyme fitness (log ratio)” value was -0.719.

As to A37C C56G, the “polymerase ribozyme fitness (log ratio)” value is -1.

Take A37G U92C U106C G110A: the “polymerase ribozyme fitness (log ratio)” value was -3.53.

Consider A37G U55C C56A C88A, for which the “polymerase ribozyme fitness (log ratio)” value was -4.55.

G36U C49U C64U G113A C115U G128U: the “polymerase ribozyme fitness (log ratio)” value was -6.05.

On to G36C C70U, for which the “polymerase ribozyme fitness (log ratio)” value is -1.72.

Take G36U U78C C101U C123A: the “polymerase ribozyme fitness (log ratio)” value was -1.09.

Regarding A37U C89A A95U C123A, the “polymerase ribozyme fitness (log ratio)” value was -3.

As to A37U C53A G63A C94G G120C U131A, the “polymerase ribozyme fitness (log ratio)” value was -3.11.

Turning to A37C C64U U92G, the “polymerase ribozyme fitness (log ratio)” value was -2.59.

Take A37U C80G: the “polymerase ribozyme fitness (log ratio)” value is -5.42.

Regarding G36C U87G U116A, the “polymerase ribozyme fitness (log ratio)” value was -5.07.

Regarding G36U G60A G113A, the “polymerase ribozyme fitness (log ratio)” value is -1.62.

Take G36A C123A: the “polymerase ribozyme fitness (log ratio)” value was 0.117.

Take G35A U59C U116G G122U C124G: the “polymerase ribozyme fitness (log ratio)” value was -6.12.

On to A37U A83U U96A C124U U131A, for which the “polymerase ribozyme fitness (log ratio)” value was 1.19.

Take G36A C72A C97U: the “polymerase ribozyme fitness (log ratio)” value turned out to be 0.549.

As to G36A A46C G61A A90C A118C, the “polymerase ribozyme fitness (log ratio)” value is -6.53.

In the case of C34G G48U G122A, the “polymerase ribozyme fitness (log ratio)” value was -7.95.

Turning to A37C C56G U125A, the “polymerase ribozyme fitness (log ratio)” value was -1.58.

In the case of G36U C85A C104A, the “polymerase ribozyme fitness (log ratio)” value is -3.96.

Take G36U C64U A119G: the “polymerase ribozyme fitness (log ratio)” value stood at 0.0711.

In the case of G36A C70A, the “polymerase ribozyme fitness (log ratio)” value is -2.23.

As for G35A G42C C73U A84U C123U, the “polymerase ribozyme fitness (log ratio)” value was -6.85.
